Values belong to the molecule of their own block, whether it stands above or below them. No end group written: not given here. CoA = coenzyme A
Key:
[1] = biological target: Chaetomium thermophilum Naa20 residues 1-166 (predicted GNAT fold) (Chaetomium thermophilum); assay: ITC; CtNaa20_(1-166) 25-35 uM in the cell, CtNaa25 250-400 uM in the syringe, 20 °C, buffer G (20 mM HEPES pH 7.5, 200 mM NaCl), single-site binding model, triplicates
CtNaa20 [2] = biological target: T1, CtNaa20 (Thermochaetoides thermophila, UniProt G0SGG4); assay: nanoDSF thermal shift; format: binding; conditions: varying ligand excess; buffer G pH 7.5
T1 construct: gene CTHT_0066240; full length, C-terminal His6 (pET21d), E. coli Rosetta II (DE3); residues 2-190 built in the crystal structure

CtNatB = biological target: T2, CtNatB (Thermochaetoides thermophila, UniProt G0SGG4); assay: nanoDSF thermal shift; format: binding; conditions: 1/64 protein/ligand; buffer G pH 7.5
T2 construct: gene CTHT_0066240; co-expressed in E. coli Rosetta II (DE3); CtNaa20 with C-terminal His6, CtNaa25 with TEV-cleavable N-terminal His6; with N-alpha-acetyltransferase 25 (N-terminal acetyltransferase B complex auxiliary subunit NAA25)

[3] = biological target: Chaetomium thermophilum Naa20, catalytic subunit of NatB, full length (Chaetomium thermophilum)
[4] = biological target: Chaetomium thermophilum NatB complex (CtNaa25 with CtNaa20) (Chaetomium thermophilum)
[5] = biological target: Chaetomium thermophilum Naa25, auxiliary subunit of NatB, full length (Chaetomium thermophilum); assay: SEC-MALS; Superdex 200 10/300 in buffer G (20 mM HEPES pH 7.5, 200 mM NaCl); CtNatB (0.12 mg, co-expressed and purified as a complex), CtNaa25 (0.13 mg) and CtNaa20 (0.1 mg) injected one after the other
CtNaa20 [6] = biological target: T3, CtNaa20 (Chaetomium thermophilum, UniProt G0SGG4 1-235); assay: EMSA; 5-20 uM protein, 5 uM RNA; 20 mM Tris pH 8, 200 mM NaCl, 10 mM MgCl2, 10 mM KCl, 20% glycerol, 20 C, 30 min; 0.8% agarose gel in 0.5x TB; conditions: protein: recombinant; tags: C-terminal His6
T3 sequence: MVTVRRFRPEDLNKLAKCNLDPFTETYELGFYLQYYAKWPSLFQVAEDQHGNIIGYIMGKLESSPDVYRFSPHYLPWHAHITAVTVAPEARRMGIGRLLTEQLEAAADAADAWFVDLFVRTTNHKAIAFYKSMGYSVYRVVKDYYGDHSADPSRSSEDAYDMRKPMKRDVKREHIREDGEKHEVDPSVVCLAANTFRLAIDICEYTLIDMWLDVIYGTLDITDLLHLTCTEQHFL

[7] = biological target: T4, Chaetomium thermophilum NatB complex (CtNaa25 with CtNaa20) (Chaetomium thermophilum); assay: cell-based or functional assay
T4 chain: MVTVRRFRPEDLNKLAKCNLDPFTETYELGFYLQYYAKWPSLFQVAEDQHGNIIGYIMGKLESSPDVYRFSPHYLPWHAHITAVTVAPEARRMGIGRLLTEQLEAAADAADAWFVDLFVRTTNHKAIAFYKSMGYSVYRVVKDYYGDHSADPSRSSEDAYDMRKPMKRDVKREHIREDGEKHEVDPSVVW

[8] = biological target: T4, Chaetomium thermophilum NatB complex …; assay: enzyme inhibition kinetics (acetylation microplate assay); 500 nM enzyme; mode of inhibition and inhibitor constant of CoA-Ac-MDEL in the acetylation of MDEL; competitive inhibitor; triplicates; conditions: both partners purified

Molecule: MDEL peptide (canonical NatB substrate)
Km for MDEL in the acetylation assay (constant AcCoA, varying MDEL) [3]: 4400 µM
Km for MDEL in the acetylation assay (constant AcCoA, varying MDEL) [4]: 232 µM

B1: CtES27 fragment (tip of expansion segment 27) (structured_RNA)
RNA: GGGCCUCUAGCCGGGCAACCGGCCGGCGGCUC
binding result (CtNaa20 [6]): no binding

The next lines start with results.

Kd [1]: 17.8 nM
dH [1]: 5.4 kcal/mol
stoichiometry N [1]: 1
Molecule: Chaetomium thermophilum Naa25, auxiliary subunit of NatB, full length (natural protein)

Tm without to with ligand (CtNatB): 58 to 62 °C
Molecule: CC(=O)SCCNC(=O)CCNC(=O)[C@H](O)C(C)(C)COP(=O)(O)OP(=O)(O)OC[C@H]1O[C@@H](n2cnc3c(N)ncnc32)[C@H](O)[C@@H]1OP(=O)(O)O [AcCoA]
Tm (CtNaa20 [2]): Binding of both ligands to CtNatB and CtNaa20 is indicated by protein stabilization

stoichiometry N [5]: 1
Molecule: Chaetomium thermophilum Naa20, catalytic subunit of NatB, full length (enzyme)

IC50 of the inhibition of acetylation by CtNaa20 alone [3]: 6500 nM
half-maximum inhibitor concentration (IC50) of the NatB mediated acetylation of MDEL [7]: 1560 nM
Ki [8]: 410 ± 140 nM
B2: CoA-Ac-MDEL bisubstrate analog (peptide MDEL joined to coenzyme A through an acetyl bridge) (peptide)
peptide: {CoA-Ac}-MDEL
notes: peptide part of the bisubstrate analog, the canonical NatB substrate MDEL; A tetrapeptide conjugate of 1314 Da; also called MDEL (peptide part M1pD2pE3pL4p); source: synthetic peptide (solid phase), bromo-acetylated and coupled to coenzyme A, purified by reverse phase HPLC

From publication PMC7782713, “Structural basis of Naa20 activity towards a canonical NatB substrate” (Communications Biology, 2021)
